This note sets out measurements from article PMC5790771, “Reconstitution of Pure Chaperonin Hetero-Oligomer Preparations in Vitro by Temperature Modulation” (Frontiers in Molecular Biosciences, 2018).

The chains are these.
B1: Cpn60β2 (At3g13470) (natural protein, A. thaliana, UniProt Q9LJE4 51-596, looked up)
chain: AAKELHFNKDGTTIRKLQTGVNKLADLVGVTLGPKGRNVVLESKYGSPRIVNDGVTVAREVELEDPVENIGAKLVRQAAAKTNDLAGDGTTTSVVLAQGFIAEGVKVVAAGANPVLITRGIEKTAKALVNELKLMSKEVEDSELADVAAVSAGNNHEVGSMIAEAMSKVGRKGVVTLEEGKSAENNLYVVEGMQFDRGYISPYFVTDSEKMSVEYDNCKLLLVDKKVTNARDLVGVLEDAIRGGYPILIIAEDIEQEALATLVVNKLRGTLKIAALKAPGFGERKSQYLDDIAILTGATVIREEVGLSLDKAGKEVLGNASKVVLTKEMTTIVGDGTTQEAVNKRVVQIRNLIEQAEQDYEKEKLNERIAKLSGGVAVIQVGAQTETELKEKKLRVEDALNATKAAVEEGIVVGGGCTLLRLASKVDAIKDTLENDEEKVGAEIVKRALSYPLKLIAKNAGVNGSVVSEKVLANDNVKFGYNAATGKYEDLMAAGIIDPTKVVRCCLEHAASVAKTFLMSDCVVVEIPEPEPVPAGNPMDNSGYGY
notes: Cpn60β2, chloroplast chaperonin 60 beta subunit of A. thaliana, At3g13470; also called β2 Cpn60; source: purified by a previously published protocol (Vitlin et al., 2011)

Data set [1] concerns the molecule itself. In words: SEC; 300 μM β2 and 150 μM mt-cpn10 reconstituted with Mg-ATP (600 μl), Superdex 200 run at room temperature; fractions on SDS-PAGE. For orientation: Size exclusion chromatography separates by hydrodynamic size, large species first.
Data set [2] deals with the molecule itself. In words: cross-linking; 20 μM purified protein, 0.1% glutaraldehyde, room temperature, 50 mM Na-HEPES (pH 8 in the legend, 7.5 in the methods), 10 mM MgCl2, 100 mM KCl; SDS-PAGE on a 2.4-12% gradient gel, Coomassie.
Another data set has as its target T1, Cpn60β3 (At1g55490) (A. thaliana, UniProt P21240 55-600).
T1 construct: Cpn60β3, chloroplast chaperonin 60 beta subunit of A. thaliana, At1g55490; also called β3 Cpn60; source: purified by a previously published protocol (Vitlin et al., 2011)
The data set can be described thus: native gel or EMSA; reconstitution: 150 μM Cpn60α2 with 100 μM Cpn60β and 50 μM Cpn10 (GroES, mt-cpn10, Cpn20 or Cpn10(2)); 50 mM Tris-HCl pH 8, 0.3 M NaCl, 10 mM MgCl2, 16 mM KCl, 2 mM DTT, 5 mM ATP; 5 min at room temperature, 1 h at 30°C; 6% native polyacrylamide gel. To be noted: both partners purified. On the technique in general: In EMSA bound probe runs differently from free probe, usually more slowly.

For the data set “Cpn60β2 (At3g13470)”, the target named is B1. In words: SEC; 150 μM α2, 100 μM β2 and 50 μM mt-cpn10 reconstituted with Mg-ATP (2 ml), Superdex 200 run at 4°C in 50 mM Tris-HCl pH 8, 300 mM NaCl, 5% glycerol; fractions on SDS-PAGE. To be noted: both partners purified.

T1 sequence (P21240 55-600): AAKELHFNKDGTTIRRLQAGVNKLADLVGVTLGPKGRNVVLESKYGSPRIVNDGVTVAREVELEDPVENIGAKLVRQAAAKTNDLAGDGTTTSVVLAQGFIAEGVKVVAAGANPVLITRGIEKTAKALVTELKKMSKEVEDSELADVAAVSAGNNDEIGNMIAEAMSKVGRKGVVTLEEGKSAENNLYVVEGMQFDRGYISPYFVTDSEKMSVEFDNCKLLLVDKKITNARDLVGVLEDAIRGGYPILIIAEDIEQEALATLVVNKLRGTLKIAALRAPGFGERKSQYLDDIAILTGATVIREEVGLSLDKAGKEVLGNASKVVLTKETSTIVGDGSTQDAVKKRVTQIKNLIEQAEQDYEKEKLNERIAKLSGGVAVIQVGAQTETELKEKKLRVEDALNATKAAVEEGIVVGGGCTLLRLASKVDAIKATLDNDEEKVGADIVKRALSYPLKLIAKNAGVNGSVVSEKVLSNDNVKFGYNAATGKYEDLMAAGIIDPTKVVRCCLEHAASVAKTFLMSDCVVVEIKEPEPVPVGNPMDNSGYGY

In the case of B1, the binding result in data set [1] is reported as “binds”.

B2: Cpn60α1 (At5g18820) (natural protein)
chain: not shown
notes: additional glycine-serine at the N-terminus, left by the cloning (printed in words); Cpn60α1, chloroplast chaperonin 60 alpha subunit of A. thaliana, At5g18820; 543 residues without the putative transit peptide; The vector codes for an octa-histidine tag followed by a TEV site at the amino terminus; also called α1 Cpn60; Cpn60α1 subunit; source: E. coli Rosetta (Novagen), purified based on the …
For the molecule B2, in data set [2], the “stoichiometry N” value came to 2.

B3: Cpn60α2 (At2g28000) (natural protein)
chain: not shown
notes: additional glycine-serine at the N-terminus, left by the cloning (printed in words); Cpn60α2, chloroplast chaperonin 60 alpha subunit of A. thaliana, At2g28000; 541 residues without the putative transit peptide; The vector codes for an octa-histidine tag followed by a TEV site at the amino terminus; also called α2 Cpn60; Cpn60α2 subunit; source: E. coli Rosetta (Novagen), purified based on the …
For B3, the binding result with Cpn60β3 (At1g55490) and in the data set with Cpn60β2 (At3g13470) was “binds” in each case.

Broadly, the stoichiometry N is a count of units in the complex or per binding partner.
